Data published in PMC12618784, “The ARVC-5-associated protein TMEM43 controls mitochondrial energy metabolism by stabilising ER-mitochondrial contact sites” (Cellular and Molecular Life Sciences: CMLS, 2025).

Biological target: T1, Dmel\Tmem43wt::TurboID (Drosophila, UniProt Q9VSB9 1-376)
T1 construct: Dmel\Tmem43 (CG8111), the Drosophila homologue of human TMEM43, wild type; Generated in this study; cloning details are available upon request; also called UAS-CG8111^WT-TurboID; source: transgenic Drosophila third-instar larvae, expressed in muscle with mef2-Gal4, in vivo and in lysate
T1 sequence (looked up): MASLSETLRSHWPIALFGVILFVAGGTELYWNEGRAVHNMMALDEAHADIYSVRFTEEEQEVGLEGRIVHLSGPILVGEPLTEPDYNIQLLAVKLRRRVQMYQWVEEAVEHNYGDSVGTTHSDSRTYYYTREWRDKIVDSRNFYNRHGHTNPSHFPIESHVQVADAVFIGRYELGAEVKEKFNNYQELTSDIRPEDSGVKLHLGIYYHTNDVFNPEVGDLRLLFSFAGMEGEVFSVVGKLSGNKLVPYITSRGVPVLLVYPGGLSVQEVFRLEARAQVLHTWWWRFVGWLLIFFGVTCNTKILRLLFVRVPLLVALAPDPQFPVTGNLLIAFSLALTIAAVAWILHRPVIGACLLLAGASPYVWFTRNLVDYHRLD
Test: proximity labelling; TurboID fusions expressed in muscle of third-instar larvae (mef2-Gal4); biotinylated proteins purified on streptavidin microbeads and identified by mass spectrometry
Conditions: partners not purified

fold stronger interaction than the p.S333L mutant (relative amounts of biotinylated protein): ~8 fold
B1: Porin (natural protein, UniProt Q94920 1-282, looked up)
chain: MAPPSYSDLGKQARDIFSKGYNFGLWKLDLKTKTSSGIEFNTAGHSNQESGKVFGSLETKYKVKDYGLTLTEKWNTDNTLFTEVAVQDQLLEGLKLSLEGNFAPQSGNKNGKFKVAYGHENVKADSDVNIDLKGPLINASAVLGYQGWLAGYQTAFDTQQSKLTTNNFALGYTTKDFVLHTAVNDGQEFSGSIFQRTSDKLDVGVQLSWASGTSNTKFAIGAKYQLDDDASVRAKVNNASQVGLGYQQKLRDGVTLTLSTLVDGKNFNAGGHKIGVGLELEA
notes: Porin, the fly homologue of the vertebrate voltage-dependent anion channels (VDACs), outer mitochondrial membrane; also called Porin/VDAC; fly homologue of the vertebrate voltage-dependent anion channels; source: endogenous, Drosophila third-instar larval extract
